Experimental data published in US4839466A, “Insulin activity messengers” (The Rockefeller University, priority 1987, dated 1989).

Test system: cAMP phosphodiesterase
Experiment: Generation of an enzyme modulator from liver plasma membranes, cAMP phosphodiesterase readout
Format: biochemical, rat
Experimental: Purification of the Enzyme Modulator. Bovine liver particulate fraction was prepared as described previously [Saltiel A. R., (1984) "Preparation and Characterization of Putative Insulin Mediators from Liver", METHODS IN DIABETES […], eds. J. Larner, S. Pohl, I:73]. Solutions were incubated in 5 mM ammonium bicarbonate, pH 7.4 with 10 nM insulin or 1 ug/ml PI-PLC as described in the figure legends. Following incubation, solutions were acidified to pH 4.0 and centrifuged at 35,000 x g for 20 minutes. Resulting supernatants were extracted with chloroform/methanol (2:1). The upper aqueous phase was aspirated and methanol was evaporated. Enzyme modulating activities were purified as described in Publication No. 6 listed earlier herein. Briefly, the extract was chromatographed on DEAE-Cellulose and eluted with 0.25M triethylamine (TEA)-formate, pH 3.75. This was followed by chromatography on C-18 reversed phase resin, in the same buffer, followed by Dowex 50W X-4 in 50 mM TEA-formate, pH 3.0. The resulting eluate was lyophilized, resuspended in 50 mM TEA-formate, pH 4.5 and sequentially chromatographed on QAE-Sephadex, SAX HPLC and a P-2 gel filtration column. Only the cyclic inositol phosphate derivative residing in Peak I was examined.
Enzyme Assays. The low Km cAMP PDE was assayed in a rat adipocyte particulate fraction as previously described [Saltiel, A. R., Steigerwalt,R. W., (1986) "Purification of Putative Insulin-Sensitive cAMP Phosphodiesterase or its Catalytic Domain From Rat Adipocytes", DIABETES, 35:698] and as later modified in Publication No. 6. Activity was linear throughout 20 min. and proportional to protein concentration. Only the low Km species of the enzyme was present in this fraction. PDH activity was assayed in liver mitoplasts after preincubation with ATP as previously described [Saltiel et al., (1982) PROC. NATL. ACAD. SCI. U.S.A., 79:3513.]. Adenylate cyclase activity was also assayed in purified adipocyte plasma membranes. For all enzyme assays, variability was less than 5%.
Liver membranes were treated with or without 10 nM insulin or 1 ug/ml PI-PLC for 10 min. at 37° C. Following cetrifugation, the supernatants were extracted and purified up to and including the SAX HPLC step. Purified extracts were added to enzyme assays at a final dilution of 1:10. Enzyme activities were assayed with no additions or after addition of purified extracts from control, insulin or PIPPLC treated membrane. Percent of basal activity is expressed in parentheses. ^1 expressed as pmoles/mg protein-min. ^2 expressed as nmoles/mg protein-min.

Q: Which “cAMP Phosphodiesterase activity” value (extract of liver membranes treated with 10 nM insulin or 1 ug/ml PI-PLC 10 min. 37° C., purified to SAX HPLC, dilution 1:10, no addition 61.7±4.2, control membranes 78.5±5.6) does the source give for Insulin: monocomponent bovine insulin here?
A: 146±3 pmoles/mg protein-min.

Q: And the “stimulation of PDE by the substance generated” value (membranes exposed to 10 nM insulin 10 min.)?
A: 2-3 fold
